Test results reported in PMC2865522, “Crystal Structure of HIV-1 gp41 Including Both Fusion Peptide and Membrane Proximal External Regions” (PLoS Pathogens, 2010).

Biological target: T1, gp41 HR1 fragment, Ala541 to Leu581 (chain of gp41_(541–665)) (HIV-1 HXB2 group M subtype B, UniProt P04578 541-581)
T1 construct: HIV-1 HXB2 (group M subtype B) envelope glycoprotein, gp41 subunit, residues Ala541 to Leu581 (heptad repeat 1); also called core fragment HR1; source: E. coli Rosetta (DE3), fusion protein; pellets of HR1 and HR2 expressing bacteria mixed before lysis; complex purified (amylose, TEV digestion, Ni2+, anion exchange, SEC); not shown: Flag-tag (DDDDK), N-terminal, kept
Assay: SEC; purified complexes on a Superdex 200 (S200) column in buffer A (0.02 M Tris pH 8.0, 0.1 M NaCl); SDS-PAGE of the peak; the complexes were assembled by mixing bacteria before lysis and co-purified
Settings: both partners purified

T1 sequence (P04578 541-581): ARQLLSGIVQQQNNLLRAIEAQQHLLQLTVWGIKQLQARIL

B1: gp41 HR2 fragment, Met628 to Lys665 as printed (chain of gp41_(541–665)) (domain or fragment)
chain: MEWDREINNYTSLIHSLIEESQNQQEKNEQELLELDK
notes: HIV-1 HXB2 (group M subtype B) envelope glycoprotein, gp41 subunit, heptad repeat 2; also called core fragment HR2; source: E. coli Rosetta (DE3), fusion protein; pellets of HR1 and HR2 expressing bacteria mixed before lysis (HR2 in excess); complex purified (amylose, TEV digestion, Ni2+, anion exchange, SEC); not shown: Flag-tag (DDDDK), N-terminal, kept
B1: binds.
